# Measured values published in US4835253A, “Specific inhibitors of tissue kallikrein” (The University Hospital, priority 1987, dated 1989).
# How the values were obtained:
# Format in all cases: biochemical, human
# [1] = system: T1, CC(=O)N1CCC[C@H]1C(=O)N[C@@H](Cc1ccccc1)C(=O)N[C@@H](CCCNC(=N)N)C(=O)N[C@@H](CO)C(=O)N[C@H](C(=O)N[C@@H](CCC(N)=O)C(N)=O)C(C)C; assay: KM determination: hydrolysis of substrate analogues by HUK (HPLC, scintillation counting); settings: other: hydrolysis by HUK, pH 9.0, 37 C, thirty minutes
# T1 construct: Human urinary kallikrein (hereinafter "HUK") was highly purified using a modification of published methods; from tissue; host or cells: human urine
# Experimental: (§1) Human urinary kallikrein (hereinafter "HUK") was highly purified using a modification of published methods that employ ultrafiltration, aprotinin-CH-sepharose affinity chromatography, and Sephadex G-100 gel filtration [ole-MoiYoi et al., Proc. Natl. Acad. Sci. USA 76: 3121-3125 (1979)]. […] The pH of each fraction was determined immediately upon elution, and the fraction was neutralized by addition of 2.0 ml of 2M Tris-HCL buffer (pH 8.0).
# (§2) KM Determination: Hydrolysis of the substrate analogue inhibitors by HUK was measured by combining the test inhibitor at different concentrations on either side of the KM value with the enzyme at pH 9.0 for thirty minutes at 37 C. The cleavage products were separated from the starting material in the digest by HPLC on a Beckman octadecylsilane (ODS) column (1×25 cm) using a thirty minute gradient of from 0-70% CH3 CN in triethylammonium phosphate buffer (pH 7.0). The starting materials and reaction products were completely resolved under these conditions. Absorbance of the HPLC effluent was monitored at 220 nm. Individual fractions were collected and the amount of peptide degradation products was quantitated by counting in a liquid scintillation counter. Samples containing individual inhibitors were incubated without HUK and solvent blanks were also chromatographed and analyzed in the same way.
# (§3) For test purposes, in these HUA cleavage studies, individual peptide sequences were synthesized, purified, and characterized as previously described herein. For these cleavage studies, doubly labelled peptides were prepared using [^3 H]-valine and […] respectively. In addition, 6.0N HCL-dioxane was used for removal of tert-butoxycarbonyl protecting groups and 90% hydrogen fluoride/10% anisole (volume/volume) for global deprotection on completion of the synthesis. After extraction and gel filtration on Sephadex G-15, final purification was completed by isocratic elution from a synchrom RP-P column (2.1×25 cm) with CH3 CN--H2 O (8 ml/min). The resultant peptides were deemed to be homogeneous by amino acid analysis; high performance liquid chromatography; thin layer chromatography; and A230 /A260 ratio analysis. […]
# [2] = system: T2, CC(=O)N[C@@H](CO)C(=O)N1CCC[C@H]1C(=O)N[C@@H](Cc1ccccc1)C(=O)N[C@@H](CCCNC(=N)N)C(=O)N[C@@H](CO)C(=O)N[C@H](C(=O)N[C@@H](CCC(N)=O)C(N)=O)C(C)C; assay: as above; settings: other: hydrolysis by HUK, pH 9.0, 37 C, thirty minutes
# T2 construct: Human urinary kallikrein (hereinafter "HUK") was highly purified using a modification of published methods; from tissue; host or cells: human urine
# Experimental: as §1, §2, §3
# [3] = system: T3, CC(=O)N[C@@H](Cc1ccccc1)C(=O)N[C@@H](CCCN=C(N)N)C(=O)N[C@@H](CO)C(=O)N[C@H](C(=O)N[C@@H](CCC(N)=O)C(N)=O)C(C)C; assay: as above; settings: other: hydrolysis by HUK, pH 9.0, 37 C, thirty minutes
# T3 construct: Human urinary kallikrein (hereinafter "HUK") was highly purified using a modification of published methods; from tissue; host or cells: human urine
# Experimental: as §1, §2, §3
# [4] = system: T4, CC[C@H](C)[C@H](N)C(=O)N[C@@H](CC1CCCCC1)C(=O)N[C@@H](CCCNC(=N)N)C(=O)Nc1ccc([N+](=O)[O-])cc1; assay: Km and Vmax of tripeptide 4-nitroanilides with HUK; settings: other: tripeptide 4-nitroanilide as HUK substrate; pH 9.0; 37.0 °C
# T4 construct: Human urinary kallikrein (hereinafter "HUK") was highly purified using a modification of published methods; from tissue; host or cells: human urine
# From the text: (§4) An evaluation of other possible peptide sequences and their potential effect as substrate analogue inhibitors specifically of tissue kallikrein was undertaken using chromogenic substrates comprising alternate series of tripeptide 4-nitroanilides using previously described methods [Amundsen et al., "Methods For The Determination Of Glandular Kallikrein By Means Of A Chromogenic Tripeptide Substrate," in Kinins-II. Part A. Plenum Press, 1979, pages 83-95]. This methodology relies on the capacity of HUK to cleave p-nitroaniline from specifically synthesized tripeptide 4-nitroanilines. Controls for this experimental series included S-2266 comprising D-Val-Leu-Arg-4NA; S-2444 comprising D-Glu-Gly-Arg-4NA; and S-2302 comprising D-Pro-Phe-Arg-4NA respectively. The 50% inhibitory concentration (IC50) values for each synthesized tripeptide 4-nitroanilide was determined at 37 C. at pH 9.0 using the specific kallikrein substrates S-2266 (Kabi, Helena Laboratories, Beaumont, Tex.). 4.0 nanograms (hereinafter "ng") of HUK were used in each sample. Blanks lacking S-2266 were run in parallel to correct for hydrolysis of all samples. In all cases, the amount of 4-nitroaniline generated from each tripeptide was less than 10% of that observed for the hydrolysis of S-2266.
# (§5) Subsequently, the Km and Vmax for each test tripeptide 4-nitroanilide was determined using conventional techniques in an HP-8450 diode array spectrophotometer (Hewlett Packard Company) attached to a HP-85 microcomputer. The multicomponent assay program was modified to allow the simultaneous determination of the reaction velocity in four samples.
# [5] = system: T5, NCCCC[C@H](NC(=O)[C@H](CC1CCCCC1)NC(=O)[C@H](N)C1CCCCC1)C(=O)Nc1ccc([N+](=O)[O-])cc1; assay: Km and Vmax of tripeptide 4-nitroanilides with HUK; settings: other: tripeptide 4-nitroanilide as HUK substrate; pH 9.0; 37.0 °C
# T5 construct: Human urinary kallikrein (hereinafter "HUK") was highly purified using a modification of published methods; from tissue; host or cells: human urine
# From the text: as §4, §5
# [6] = system: T6, N=C(N)NCCC[C@H](NC(=O)[C@H](CC1CCCCC1)NC(=O)[C@H](N)c1ccccc1)C(=O)Nc1ccc([N+](=O)[O-])cc1; assay: Km and Vmax of tripeptide 4-nitroanilides with HUK; settings: other: tripeptide 4-nitroanilide as HUK substrate; pH 9.0; 37.0 °C
# T6 construct: Human urinary kallikrein (hereinafter "HUK") was highly purified using a modification of published methods; from tissue; host or cells: human urine
# From the text: as §4, §5
# [7] = system: T7, N=C(N)NCCC[C@H](NC(=O)[C@H](Cc1ccccc1)NC(=O)[C@H](N)C1CCCCC1)C(=O)Nc1ccc([N+](=O)[O-])cc1; assay: Km and Vmax of tripeptide 4-nitroanilides with HUK; settings: other: tripeptide 4-nitroanilide as HUK substrate; pH 9.0; 37.0 °C
# T7 construct: Human urinary kallikrein (hereinafter "HUK") was highly purified using a modification of published methods; from tissue; host or cells: human urine
# From the text: as §4, §5
# [8] = system: T8, N=C(N)NCCC[C@H](NC(=O)[C@H](CC1CCCCC1)NC(=O)[C@@H](N)C1CCCCC1)C(=O)Nc1ccc([N+](=O)[O-])cc1; assay: Km and Vmax of tripeptide 4-nitroanilides with HUK; settings: other: tripeptide 4-nitroanilide as HUK substrate; pH 9.0; 37.0 °C
# T8 construct: Human urinary kallikrein (hereinafter "HUK") was highly purified using a modification of published methods; from tissue; host or cells: human urine
# From the text: as §4, §5
# [9] = system: T9, NCCCC[C@H](NC(=O)[C@H](CC1CCCCC1)NC(=O)[C@H](N)c1ccccc1)C(=O)Nc1ccc([N+](=O)[O-])cc1; assay: Km and Vmax of tripeptide 4-nitroanilides with HUK; settings: other: tripeptide 4-nitroanilide as HUK substrate; pH 9.0; 37.0 °C
# T9 construct: Human urinary kallikrein (hereinafter "HUK") was highly purified using a modification of published methods; from tissue; host or cells: human urine
# From the text: as §4, §5
substance,measurement,setting,value
Human urinary kallikrein (Homo sapiens),Km,[1],482 µM
same,kcat,[1],229 mol/mol/sec
same,Km,[2],37.6 µM
same,Km,[3],307 µM
same,kcat,[3],188 mol/mol/sec
same,Km,[4],1.33 µM
same,Km,[5],46.6 µM
same,Km,[6],1.96 µM
same,Km,[7],0.84 µM
same,Km,[8],12.5 µM
same,Km,[9],48.1 µM
